Results from paper PMC6179184, “Interaction of the Warsaw breakage syndrome DNA helicase DDX11 with the replication fork-protection factor Timeless promotes sister chromatid cohesion” (PLoS Genetics, 2018).

B1: DDX11-3xFlag wild type [human] / endogenous Timeless (HEK 293T) [human (endogenous in HEK 293T)] (parent complex)
chain 1: MANETQKVGAIHFPFPFTPYSIQEDFMAELYRVLEAGKIGIFESPTGTGKSLSLICGALSWLRDFEQKKREEEARLLETGTGPLHDEKDESLCLSSSCEGAAGTPRPAGEPAWVTQFVQKKEERDLVDRLKAEQARRKQREERLQQLQHRVQLKYAAKRLRQEEEERENLLRLSREMLETGPEAERLEQLESGEEELVLAEYESDEEKKVASRVDEDEDDLEEEHITKIYYCSRTHSQLAQFVHEVKKSPFGKDVRLVSLGSRQNLCVNEDVKSLGSVQLINDRCVDMQRSRHEKKKGAEEEKPKRRRQEKQAACPFYNHEQMGLLRDEALAEVKDMEQLLALGKEARACPYYGSRLAIPAAQLVVLPYQMLLHAATRQAAGIRLQDQVVIIDEAHNLIDTITGMHSVEVSGSQLCQAHSQLLQYVERYGKRLKAKNLMYLKQILYLLEKFVAVLGGNIKQNPNTQSLSQTGTELKTINDFLFQSQIDNINLFKVQRYCEKSMISRKLFGFTERYGAVFSSREQPKLAGFQQFLQSLQPRTTEALAAPADESQASTLRPASPLMHIQGFLAALTTANQDGRVILSRQGSLSQSTLKFLLLNPAVHFAQVVKECRAVVIAGGTMQPVSDFRQQLLACAGVEAERVVEFSCGHVIPPDNILPLVICSGISNQPLEFTFQKRELPQMMDEVGRILCNLCGVVPGGVVCFFPSYEYLRQVHAHWEKGGLLGRLAARKKIFQEPKSAHQVEQVLLAYSRCIQACGQERGQVTGALLLSVVGGKMSEGINFSDNLGRCVVMVGMPFPNIRSAELQEKMAYLDQTLPRAPGQAPPGKALVENLCMKAVNQSIGRAIRHQKDFASVVLLDQRYARPPVLAKLPAWIRARVEVKATFGPAIAAVQKFHREKSASS
chain 2: MDLHMMNCELLATCSALGYLEGDTYHKEPDCLESVKDLIRYLRHEDETRDVRQQLGAAQILQSDLLPILTQHHQDKPLFDAVIRLMVNLTQPALLCFGNLPKEPSFRHHFLQVLTYLQAYKEAFASEKAFGVLSETLYELLQLGWEERQEEDNLLIERILLLVRNILHVPADLDQEKKIDDDASAHDQLLWAIHLSGLDDLLLFLASSSAEEQWSLHVLEIVSLMFRDQNPEQLAGVGQGRLAQERSADFAELEVLRQREMAEKKTRALQRGNRHSRFGGSYIVQGLKSIGERDLIFHKGLHNLRNYSSDLGKQPKKVPKRRQAARELSIQRRSALNVRLFLRDFCSEFLENCYNRLMGSVKDHLLREKAQQHDETYYMWALAFFMAFNRAASFRPGLVSETLSVRTFHFIEQNLTNYYEMMLTDRKEAASWARRMHLALKAYQELLATVNEMDISPDEAVRESSRIIKNNIFYVMEYRELFLALFRKFDERCQPRSFLRDLVETTHLFLKMLERFCRSRGNLVVQNKQKKRRKKKKKVLDQAIVSGNVPSSPEEVEAVWPALAEQLQCCAQNSELSMDSVVPFDAASEVPVEEQRAEAMVRIQDCLLAGQAPQALTLLRSAREVWPEGDVFGSQDISPEEEIQLLKQILSAPLPRQQGPEERGAEEEEEEEEEEEEELQVVQVSEKEFNFLDYLKRFACSTVVRAYVLLLRSYQQNSAHTNHCIVKMLHRLAHDLKMEALLFQLSVFCLFNRLLSDPAAGAYKELVTFAKYILGKFFALAAVNQKAFVELLFWKNTAVVREMTEGYGSLDDRSSSRRAPTWSPEEEAHLRELYLANKDVEGQDVVEAILAHLNTVPRTRKQIIHHLVQMGLADSVKDFQRKGTHIVLWTGDQELELQRLFEEFRDSDDVLGHIMKNITAKRSRARIVDKLLALGLVAERRELYKKRQKKLASSILPNGAESLKDFCQEDLEEEENLPEEDSEEEEEGGSEAEQVQGSLVLSNENLGQSLHQEGFSIPLLWLQNCLIRAADDREEDGCSQAVPLVPLTEENEEAMENEQFQQLLRKLGVRPPASGQETFWRIPAKLSPTQLRRAAASLSQPEEEQKLQPELQPKVPGEQGSDEEHCKEHRAQALRALLLAHKKKAGLASPEEEDAVGKEPLKAAPKKRQLLDSDEEQEEDEGRNRAPELGAPGIQKKKRYQIEDDEDD

Variants of: B1
Assay: co-immuno-precipitation (anti-Flag M2 agarose beads) with quantified Western blot; HEK 293T whole cell extracts, 48 hr post-transfection; three independent experiments; parent: 1; read off a plot

Row | ratio to parent | Variant
1 | ~0.56 | chain 1 E201K, chain 1 Y202A, chain 1 E203K
2 | ~0.48 | chain 1 E201K, chain 1 Y202A
